Experimental data taken from patent publication CN113880955A (dated 2022).

T1: 人CD70 (human, UniProt P32970 1-193)
T1 construct: whole, on cells; also called 人类CD70; CD27L
T1 sequence (looked up): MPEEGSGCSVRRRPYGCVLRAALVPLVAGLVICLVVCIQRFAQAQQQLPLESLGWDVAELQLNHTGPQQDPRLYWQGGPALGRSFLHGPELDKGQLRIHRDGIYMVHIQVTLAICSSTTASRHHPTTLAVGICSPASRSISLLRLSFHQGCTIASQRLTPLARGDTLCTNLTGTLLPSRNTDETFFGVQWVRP


What was measured:
人CD70 [1] = biological target: T1, 人CD70; experiment: flow cytometry on CHO cells expressing human CD70
人CD70 [2] = biological target: T1, 人CD70; experiment: flow cytometry on CD47+CD70+ U266 cells (double positive: binding through CD70 and/or CD47)
人CD47 = biological target: T2, 人CD47 (human, UniProt Q08722 19-323); experiment: as above
T2 construct: whole, on cells
T2 sequence (Q08722 19-323): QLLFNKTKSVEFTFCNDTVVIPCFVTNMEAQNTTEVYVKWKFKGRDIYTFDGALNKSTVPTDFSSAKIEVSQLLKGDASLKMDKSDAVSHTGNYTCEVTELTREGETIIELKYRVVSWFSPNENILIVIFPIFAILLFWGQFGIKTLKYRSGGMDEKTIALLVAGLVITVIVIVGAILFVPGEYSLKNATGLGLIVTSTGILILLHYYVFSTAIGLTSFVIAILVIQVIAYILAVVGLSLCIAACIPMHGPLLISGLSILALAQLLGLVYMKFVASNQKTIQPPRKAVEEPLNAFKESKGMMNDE

人CD70 [3] = biological target: T1, 人CD70; experiment: flow cytometry on CD47+CD70+ Raji cells

binding result (人CD70 [1]) | binding result (人CD70 [2]) | Binder | further results
binds |  | IMM4003 (bispecific antibody, human IgG1, kappa, also called 重组融合蛋白IMM4003) heavy: QVQLVQSGAEVKKPGASVKVSCKVSGYTFTDSALHWVRQAPGKGLEWMGVISTYDGDTDYNQKFKGRVTMTEDTSTDTAYMELSSLRSEDTAVYYCARRGYYDYDWFPYWGQGTLVTVSAASTKGPSVFPLAPSSKSTSGGTAALGCLVKDYFPEPVTVSWNSGALTSGVHTFPAVLQSSGLYSLSSVVTVPSSSLGTQTYICNVNHKPSNTKVDKRVEPKSCDKTHTCPPCPAPELLGGPSVFLFPPKPKDTLMISRTPEVTCVVVDVSHEDPEVKFNWYVDGVEVHNAKTKPREEQYNATYRVVSVLTVLHQDWLNGKEYKCKVSNKALPAPIAATISKAKGQPREPQVYTLPPSREEMTKNQVSLTCLVKGFYPSDIAVEWESNGQPENNYKTTPPVLDSDGSFFLYSKLTVDKSRWQQGNVFSCSVMHEALHNHYTQKSLSLSPGK light: not shown | 
 | binds | IMM4002 (bispecific antibody, human IgG1, kappa, Made in CHO-S cells; also called 重组融合蛋白IMM4002) heavy: not shown light: DIVLTQSPASLAVSPGQRATITCRASKSVSASGYSFLHWYQQKPGQPPKLLIYLASNLESGVPARFSGSGSGTDFTLTINPVEANDTANYYCQHSRELPPTFGGGTKVEIKRTVAAPSVFIFPPSDEQLKSGTASVVCLLNNFYPREAKVQWKVDNALQSGNSQESVTEQDSKDSTYSLSSTLTLSKADYEKHKVYACEVTHQGLSSPVTKSFNRGEC | 
 | binds | IMM4002M (bispecific antibody, human IgG1, kappa, As IMM4002, but the light chain variable region carries N85E, which removes the glycosylation site (antibody part = IMM40M); also called 重组融合蛋白IMM4002M) heavy: not shown light: DIVLTQSPASLAVSPGQRATITCRASKSVSASGYSFLHWYQQKPGQPPKLLIYLASNLESGVPARFSGSGSGTDFTLTINPVEAEDTANYYCQHSRELPPTFGGGTKVEIKRTVAAPSVFIFPPSDEQLKSGTASVVCLLNNFYPREAKVQWKVDNALQSGNSQESVTEQDSKDSTYSLSSTLTLSKADYEKHKVYACEVTHQGLSSPVTKSFNRGEC | binding result (人CD47): binds
binds |  | IMM40H (antibody, human IgG1, kappa, V domains shown, IgG antibody against CD70; also called CD70抗体IMM40H; CD70单特异性抗体IMM40H) VH: QVQLVQSGAEVKKPGASVKVSCKVSGYTFTDSALHWVRQAPGKGLEWMGVISTYDGDTDYNQKFKGRVTMTEDTSTDTAYMELSSLRSEDTAVYYCARRGYYDYDWFPYWGQGTLVTVSA VL: DIVLTQSPASLAVSPGQRATITCRASKSVSASGYSFLHWYQQKPGQPPKLLIYLASNLESGVPARFSGSGSGTDFTLTINPVEANDTANYYCQHSRELPPTFGGGTKVEIKR | 
 |  | Cusatuzumab (antibody, human IgG1, lambda, V domains shown, IgG antibody against CD70, used as control) VH: EVQLVESGGGLVQPGGSLRLSCAASGFTFSVYYMNWVRQAPGKGLEWVSDINNEGGTTYYADSVKGRFTISRDNSKNSLYLQMNSLRAEDTAVYYCARDAGYSNHVPIFDSWGQGTLVTVSS VL: QAVVTQEPSLTVSPGGTVTLTCGLKSGSVTSDNFPTWYQQTPGQAPRLLIYNTNTRHSGVPDRFSGSILGNKAALTITGAQADDEAEYFCALFISNPSVEFGGGTQLTVLG | binding result (人CD70 [3]): binds
